Drawing on article PMC8144298, this text covers binding signal for one substance.

In this data set the target is CsrA-3xFLAG (Escherichia coli) (UniProt P69913). Put plainly: competition. The conditions noted are these: competitor conc. that fully displaces labeled RrBshort (120 pM) from 200 nM CsrA; CsrA EMSA: 100 mM KCl, 10 mM MgCl2, 2 mM DTT, 7.5% glycerol, 2 ng total yeast RNA, 120 pM RNA, 10 min 37 C, 8% native PAGE in 1x TBE (pH not stated); Hfq EMSA: …. Background: In EMSA bound probe runs differently from free probe, usually more slowly.
CsrA-3xFLAG (Escherichia coli), sequence (P69913 whole entry): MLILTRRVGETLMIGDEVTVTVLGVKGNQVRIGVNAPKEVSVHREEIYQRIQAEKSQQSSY

Substance CsrB showed a binding signal of 3.13 nM.
